We go through 1 molecule from paper PMC6797848, “A TBR1-K228E Mutation Induces Tbr1 Upregulation, Altered Cortical Distribution of Interneurons, Increased Inhibitory Synaptic Transmission, and Autistic-Like Behavioral Deficits in Mice”.

What all share (settings): protein: recombinant; tags: N-terminal His6 removed by thrombin (pET28a, NdeI/HindIII); label: 5'-biotin on strand 1
Data set [1] addresses T1, TBR1 T-box domain WT (hTBR1DBD) (human, UniProt Q16650 200-400).
T1 sequence: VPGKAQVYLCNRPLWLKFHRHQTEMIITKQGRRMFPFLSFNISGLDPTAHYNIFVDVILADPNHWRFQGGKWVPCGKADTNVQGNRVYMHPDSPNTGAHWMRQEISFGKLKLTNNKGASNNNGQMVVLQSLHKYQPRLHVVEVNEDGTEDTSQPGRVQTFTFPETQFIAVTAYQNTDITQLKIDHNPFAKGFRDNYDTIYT
Kind of data set: BLI; protein 2.5-10 uM; Kd only plotted in figure; BLI (BLITZ, streptavidin sensor): kinetic buffer 20 mM HEPES pH 7.5, 100 mM NaCl, 25 C (stated for sensor hydration/equilibration); protein stock in 20 mM HEPES pH 7.5, 150 mM NaCl, 5 mM MgCl2.

The target in the next data set is T2, TBR1 T-box domain K228E (human, UniProt Q16650 200-400, K228E).
T2 sequence: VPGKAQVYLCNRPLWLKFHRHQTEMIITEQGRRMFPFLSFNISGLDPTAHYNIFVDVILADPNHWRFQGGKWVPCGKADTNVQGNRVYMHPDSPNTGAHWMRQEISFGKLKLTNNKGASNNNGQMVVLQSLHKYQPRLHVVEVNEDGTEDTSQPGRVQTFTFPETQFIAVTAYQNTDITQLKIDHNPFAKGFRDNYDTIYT
Briefly: BLI; n=3; Kd only plotted in figure; BLI (BLITZ, streptavidin sensor): kinetic buffer 20 mM HEPES pH 7.5, 100 mM NaCl, 25 C (stated for sensor hydration/equilibration); protein stock in 20 mM HEPES pH 7.5, 150 mM NaCl, 5 mM MgCl2. Background: Biolayer interferometry detects binding as a change in optical thickness at a sensor tip.

In the next data set the target is T3, TBR1 T-box domain N374H (human, UniProt Q16650 200-400, N374H).
T3 sequence: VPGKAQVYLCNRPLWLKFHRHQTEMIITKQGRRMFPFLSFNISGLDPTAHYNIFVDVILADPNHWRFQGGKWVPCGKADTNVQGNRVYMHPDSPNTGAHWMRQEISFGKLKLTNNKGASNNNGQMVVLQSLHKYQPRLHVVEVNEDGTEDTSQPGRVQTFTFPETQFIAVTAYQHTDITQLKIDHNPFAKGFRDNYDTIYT
Kind of data set: BLI; n=3; stated as no effect on affinity; Kd only plotted in figure; BLI (BLITZ, streptavidin sensor): kinetic buffer 20 mM HEPES pH 7.5, 100 mM NaCl, 25 C (stated for sensor hydration/equilibration); protein stock in 20 mM HEPES pH 7.5, 150 mM NaCl, 5 mM MgCl2.

B1: Grin2b-promoter probe (dsDNA)
DNA 1: TATATAGGTTGAGTGGCACGTTCCTGGGTGTGAGACC
DNA 2: GGTCTCACACCCAGGAACGTGCCACTCAA
In the case of B1, in data set [1], the binding result is “binds”. Also, the binding signal is roughly 3 fold increase in Kd vs WT in the data set with TBR1 T-box domain K228E and roughly 1 fold Kd vs WT in the data set with TBR1 T-box domain N374H.
